B1: Prelamin-A/C (Homo sapiens), P02545 (parent)
chain: METPSQRRATRSGAQASSTPLSPTRITRLQEKEDLQELNDRLAVYIDRVRSLETENAGLRLRITESEEVVSREVSGIKAAYEAELGDARKTLDSVAKERARLQLELSKVREEFKELKARNTKKEGDLIAAQARLKDLEALLNSKEAALSTALSEKRTLEGELHDLRGQVAKLEAALGEAKKQLQDEMLRRVDAENRLQTMKEELDFQKNIYSEELRETKRRHETRLVEIDNGKQREFESRLADALQELRAQHEDQVEQYKKELEKTYSAKLDNARQSAERNSNLVGAAHEELQQSRIRIDSLSAQLSQLQKQLAAKEAKLRDLEDSLARERDTSRRLLAEKEREMAEMRARMQQQLDEYQELLDIKLALDMEIHAYRKLLEGEEERLRLSPSPTSQRSRGRASSHSSQTQGGGSVTKKRKLESTESRSSFSQHARTSGRVAVEEVDEEGKFVRLRNKSNEDQSMGNWQIKRQNGDDPLLTYRFPPKFTLKAGQVVTIWAAGAGATHSPPTDLVWKAQNTWGCGNSLRTALINSTGEEVAMRKLVRSVTVVEDDEDEDGDDLLHHHHGSHCSSSGDPAEYNLRSRTVLCGTCGQPADKASASGSGAQVGGPISSGSSASSVTVTRSYRSVGGSGGGSFGDNLVTRSYLLGNSSPRTQSPQNCSIM

Assay [1] covers variants of B1. The note with it: with SYNE2, Q8WXH0-1.
Assay [2] covers variants of B1. The settings on record: with SYNE2, Q8WXH0-1. This is another data set of the same source.

For R401C, the “effect of a mutation on the interaction” value in the assay with SYNE2, Q8WXH0-1 [1] was “increasing interaction strength”; with SYNE2, Q8WXH0-1 [2] it was “with no effect”.
For R419C, in that order: “decreasing interaction strength” and “with no effect”.
On the same counts, the results for G411D are “increasing interaction strength” and “with no effect”.
For R427G, in that order: “decreasing interaction strength” and “with no effect”.
As to V415I, the “effect of a mutation on the interaction” value with SYNE2, Q8WXH0-1 [1] was “increasing interaction strength”; in the assay with SYNE2, Q8WXH0-1 [2], “with no effect”.
Consider G413C, for which the “effect of a mutation on the interaction” value in the assay with SYNE2, Q8WXH0-1 [1] is recorded as “decreasing interaction strength”; with SYNE2, Q8WXH0-1 [2], “with no effect”.
For the variant L421P, the “effect of a mutation on the interaction” value with SYNE2, Q8WXH0-1 [1] is listed as “decreasing interaction strength”; with SYNE2, Q8WXH0-1 [2] it was “with no effect”.

Values taken from IntAct's records for PubMed 23977161.
